How the values were obtained:
[1] = tested on: 6His-ArsR1 (Pseudomonas putida KT2440); experiment: EMSA; conditions: no arsenite; 'gross KD'; EMSA: TRRG buffer (20 mM Tris-HCl pH 7.5, 50 mM KCl, 2 mM beta-mercaptoethanol, 10% glycerol), BSA, 25 ug/ml herring sperm DNA, 0.3 nM probe, 20 min 30 C …
[2] = tested on: 6His-ArsR2 (Pseudomonas putida KT2440); experiment: EMSA; conditions: no arsenite; 'gross KD'; EMSA: TRRG buffer (20 mM Tris-HCl pH 7.5, 50 mM KCl, 2 mM beta-mercaptoethanol, 10% glycerol), BSA, 25 ug/ml herring sperm DNA, 0.3 nM probe, 20 min 30 C …
[3] = target: the molecule itself; experiment: AUC; sedimentation velocity, 20°C, 48,000 rpm, 20 mM NaH2PO4, 100 mM KCl, 2 mM β-mercaptoethanol, pH 8.0, with or without 2 mM arsenite; data shown for 20 μM protein (methods: 42 μM 6His-ArsR1, 36 μM 6His-ArsR2); s = 2.1 ± 0.1 S

Molecule | stoichiometry N [3] | also measured
Pars1 probe |  | Kd [1]: 200 nM
Pars2 probe |  | Kd [2]: 500 nM
6His-ArsR2 (natural protein, Pseudomonas putida KT2440, UniProt Q88JD1 1-115, looked up, ArsR2, As(III)-responsive transcriptional repressor of the ars2 operon (SmtB/ArsR family), Pseudomonas putida KT2440; protein of 115 amino acids; 364-bp PCR fragment that includes the arsR2 gene cloned BamHI/HindIII into pQE32; Theoretical monomer mass with tag 14,519 Da; source: E. coli M15 (pREP4, pQE32-ArsR2), purified (Ni-NTA agarose, dialysed)) MITPPDVFKSLSDETRARATLLIASLGELCVCELMCALNDSQPKISRHLAQLRSNGMLLDRRQGQWVYYRLNPELPSWVHEMLQVTLQANSQWLADNALRLKNMDGRPVRDSVCC | 2 | 
6His-ArsR1 (natural protein, Pseudomonas putida KT2440, UniProt Q88LK1 11-128, looked up, ArsR1, As(III)-responsive transcriptional repressor of the ars1 operon (SmtB/ArsR family), Pseudomonas putida KT2440; protein of 118 amino acids; 373-bp PCR fragment that includes the arsR1 gene cloned BamHI/HindIII into pQE32; Theoretical monomer mass with tag 14,869 Da; source: E. coli M15 (pREP4, pQE32-ArsR1), purified (Ni-NTA agarose, dialysed)) MREILTPPIVFKCLADDTRARMTLLIAREGELCVCELTHALELSQPKISRHLAQLREAGILMDRRKGQWVYYRLHPEVPQWVDAMLKGVVDANQEWLSPDALRLAEMGERPQSPVACA | 2 | 

— publication PMC7994332, “A Bifan Motif Shaped by ArsR1, ArsR2, and Their Cognate Promoters Frames Arsenic Tolerance of Pseudomonas putida” (Frontiers in Microbiology, 2021)
